From patent publication US20240092872A1 (VIR BIOTECHNOLOGY, published 2024)

Key:
[1] = molecular target: T1, Recombinant human FcγRIIIa (F158) (human, UniProt P08637 17-208); assay: BLI (Octet RED96); His-tagged FcγR on anti-penta-His sensors, 2 µg/ml mAb cross-linked with anti-human F(ab')2
T1 construct: also called FcγRIIIa allele F158; His-tagged human FcγRIIIa F158

[2] = molecular target: T2, Recombinant human FcγRIIa (H131) (human, UniProt P12318 34-218); assay: as above
T2 construct: also called FcγRIIa allele H131; His-tagged human FcγRIIa H131
T2 sequence: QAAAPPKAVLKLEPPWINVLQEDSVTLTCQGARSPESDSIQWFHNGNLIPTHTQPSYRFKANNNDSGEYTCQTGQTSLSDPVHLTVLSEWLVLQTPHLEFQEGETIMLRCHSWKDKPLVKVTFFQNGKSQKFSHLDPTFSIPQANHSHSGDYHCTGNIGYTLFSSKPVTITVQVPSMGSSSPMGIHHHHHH

[3] = molecular target: T3, Recombinant human FcγRIIIa (V158) (human, UniProt P08637 17-208); assay: as above
T3 construct: also called FcγRIIIa allele V158; His-tagged human FcγRIIIa V158
T3 sequence (P08637 other isoform, or with tags, fused parts or gaps limits assumed): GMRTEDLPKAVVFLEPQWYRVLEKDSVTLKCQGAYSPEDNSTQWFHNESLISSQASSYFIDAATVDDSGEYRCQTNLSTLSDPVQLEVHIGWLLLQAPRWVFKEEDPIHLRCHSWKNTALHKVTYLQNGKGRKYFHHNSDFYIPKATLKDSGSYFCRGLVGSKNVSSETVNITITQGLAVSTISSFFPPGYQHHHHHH

[4] = molecular target: T4, His-tagged human FcγRIIa allele R131 (human, UniProt P12318 34-218); assay: as above
T4 construct: also called FcγRIIa R131
T4 sequence (looked up): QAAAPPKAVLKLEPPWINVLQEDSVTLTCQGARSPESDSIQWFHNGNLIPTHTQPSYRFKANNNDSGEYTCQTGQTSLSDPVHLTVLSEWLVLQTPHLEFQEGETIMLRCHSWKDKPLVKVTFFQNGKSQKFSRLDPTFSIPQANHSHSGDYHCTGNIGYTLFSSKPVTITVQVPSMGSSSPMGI

[5] = molecular target: T5, Human complement component C1q (human, UniProt P02745 23-245; P02746 28-253; P02747 29-245); assay: BLI (Octet RED96); IgG captured through the Fab on anti-human Fab (CH1) sensors
T5 construct: mature; also called purified human C1q
T5 sequence (P02745 23-245, chain 1 of 3): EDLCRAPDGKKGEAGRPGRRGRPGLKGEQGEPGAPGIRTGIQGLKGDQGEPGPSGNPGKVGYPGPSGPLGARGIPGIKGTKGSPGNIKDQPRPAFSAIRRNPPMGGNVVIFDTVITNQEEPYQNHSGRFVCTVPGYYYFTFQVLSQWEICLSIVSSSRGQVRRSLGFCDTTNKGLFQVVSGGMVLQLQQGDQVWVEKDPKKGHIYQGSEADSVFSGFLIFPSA
T5 sequence (P02746 28-253, chain 2 of 3): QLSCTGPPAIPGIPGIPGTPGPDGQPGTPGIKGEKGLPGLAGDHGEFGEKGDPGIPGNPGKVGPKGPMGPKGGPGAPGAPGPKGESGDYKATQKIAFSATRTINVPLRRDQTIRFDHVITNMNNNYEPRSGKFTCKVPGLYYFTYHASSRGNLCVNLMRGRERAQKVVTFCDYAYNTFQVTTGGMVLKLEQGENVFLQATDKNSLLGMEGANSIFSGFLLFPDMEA
T5 sequence (P02747 29-245, chain 3 of 3): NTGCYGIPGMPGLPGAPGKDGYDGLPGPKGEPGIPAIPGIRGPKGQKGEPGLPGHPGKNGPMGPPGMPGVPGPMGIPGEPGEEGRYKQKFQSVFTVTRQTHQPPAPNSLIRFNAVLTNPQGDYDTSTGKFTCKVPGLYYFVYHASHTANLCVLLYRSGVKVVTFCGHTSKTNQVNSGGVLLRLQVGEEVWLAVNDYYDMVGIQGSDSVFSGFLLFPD

T1 sequence (P08637 other isoform, or with tags, fused parts or gaps limits assumed): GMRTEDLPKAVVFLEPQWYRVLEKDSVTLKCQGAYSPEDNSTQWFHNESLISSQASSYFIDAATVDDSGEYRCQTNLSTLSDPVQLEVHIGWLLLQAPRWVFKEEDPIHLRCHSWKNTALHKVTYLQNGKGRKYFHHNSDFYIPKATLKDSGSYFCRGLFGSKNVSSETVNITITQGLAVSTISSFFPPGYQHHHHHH

B1: HBC34-V35-MLNS-GAALIE (antibody, human IgG1, lambda)
heavy: ELQLVESGGGWVQPGGSQRLSCAASGRIFRSFYMSWVRQAPGKGLEWVATINQDGSEKLYVDSVKGRFTISRDNAKNSLFLQMNNLRVEDTAVYYCAAWSGNSGGMDVWGQGTTVSVSSASTKGPSVFPLAPSSKSTSGGTAALGCLVKDYFPEPVTVSWNSGALTSGVHTFPAVLQSSGLYSLSSVVTVPSSSLGTQTYICNVNHKPSNTKVDKKVEPKSCDKTHTCPPCPAPELLAGPSVFLFPPKPKDTLMISRTPEVTCVVVDVSHEDPEVKFNWYVDGVEVHNAKTKPREEQYNSTYRVVSVLTVLHQDWLNGKEYKCKVSNKALPLPEEKTISKAKGQPREPQVYTLPPSRDELTKNQVSLTCLVKGFYPSDIAVEWESNGQPENNYKTTPPVLDSDGSFFLYSKLTVDKSRWQQGNVFSCSVLHEALHSHYTQKSLSLSPGK
light: SYELTQPPSVSVSPGQTVSIPCSGDKLGNKNVAWFQHKPGQSPVLVIYEVKYRPSGIPERFSGSNSGNTATLTISGTQAMDEAAYFCQTFDSTTVVFGGGTRLTVLGQPKAAPSVTLFPPSSEELQANKATLVCLISDFYPGAVTVAWKADSSPVKAGVETTTPSKQSNNKYAASSYLSLTPEQWKSHRSYSCQVTHEGSTVEKTVAPTECS
Does B1 bind [1]?
Result: binds

Does B1 bind [2]?
Result: binds

Does B1 bind [3]?
Result: binds

Does B1 bind [4]?
Result: binds

Does B1 bind [5]?
Result: no binding (tested: 3 µg/ml of purified human C1q)
